± gives the standard error. Variants at the floor of the assay were thinned out.
B1: glmS ribozyme (parent)
chain: AUAAAAGCGCCAGAACUACAGAAAUGUAGUUGACGAGGAGGAGGUUUAUCGAAUUUUCGGCGGAUGCCUCCAAA

What was measured:
Details in all cases: with glucosamine-6-phosphate
glucosamine-6-phosphate [1] = variants of: B1; assay: self-cleavage kobs at 160 uM GlcN6P; higher = faster cleavage; RNA array
In short: (§1)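 Glucosamine-6-phosphate in HEPES/KCl/Mg(OAc)2 buffer, at 40 μM to 10 mM, was flowed over barcoded ribozyme variants transcribed in situ by E. coli RNA polymerase on sequenced MiSeq chips. Tracking was through a hybridised Cy3 probe at 37 °C. kobs, kcat and KM came from exponential decay fits and weighted Michaelis–Menten fits of normalised per-tile medians.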

glucosamine-6-phosphate [2] = variants of: B1; assay: self-cleavage kobs at 640 uM GlcN6P; higher = faster cleavage; RNA array
In short: as §1

glucosamine-6-phosphate [3] = variants of: B1; assay: self-cleavage kobs at 2500 uM GlcN6P; higher = faster cleavage; RNA array
In short: as §1

glucosamine-6-phosphate [4] = variants of: B1; assay: self-cleavage kobs at 10000 uM GlcN6P; higher = faster cleavage; RNA array
In short: as §1

Row | Variant | self-cleavage kobs at 160 uM GlcN6P (glucosamine-6-phosphate [1]) | self-cleavage kobs at 640 uM GlcN6P (glucosamine-6-phosphate [2]) | self-cleavage kobs at 2500 uM GlcN6P (glucosamine-6-phosphate [3]) | self-cleavage kobs at 10000 uM GlcN6P (glucosamine-6-phosphate [4])
1 | A42C A52G U55A U57G C68U C70U | < 1e-05 s⁻¹ | < 1e-05 s⁻¹ | < 1e-05 s⁻¹ | –
2 | C11A C16A | < 1e-05 s⁻¹ | – | – | 2.86e-05 ± 1e-05 s⁻¹
3 | A33C G59A | < 1e-05 s⁻¹ | < 1e-05 s⁻¹ | < 1e-05 s⁻¹ | –
4 | A36U G51C | < 1e-05 s⁻¹ | < 1e-05 s⁻¹ | – | < 1e-05 s⁻¹
5 | C8G C11G G43A | < 1e-05 s⁻¹ | < 1e-05 s⁻¹ | < 1e-05 s⁻¹ | –
6 | G40C G44A A53C | < 1e-05 s⁻¹ | < 1e-05 s⁻¹ | < 1e-05 s⁻¹ | –
7 | G9U G32C G35C A64G | < 1e-05 s⁻¹ | < 1e-05 s⁻¹ | < 1e-05 s⁻¹ | –
8 | C8G G51U A64U | < 1e-05 s⁻¹ | < 1e-05 s⁻¹ | – | –
9 | C8G C16G | < 1e-05 s⁻¹ | < 1e-05 s⁻¹ | < 1e-05 s⁻¹ | < 1e-05 s⁻¹
10 | A42C G62C G63U U69A | < 1e-05 s⁻¹ | – | < 1e-05 s⁻¹ | –
11 | G32U G43U | < 1e-05 s⁻¹ | – | < 1e-05 s⁻¹ | –
12 | G13C A14C G51A G66U | < 1e-05 s⁻¹ | – | < 1e-05 s⁻¹ | –
13 | G7A U54C U65G C67U | < 1e-05 s⁻¹ | < 1e-05 s⁻¹ | < 1e-05 s⁻¹ | –
14 | A36C G41A G66U | < 1e-05 s⁻¹ | – | < 1e-05 s⁻¹ | –
15 | C8U G29U C34U U46G A53G | < 1e-05 s⁻¹ | < 1e-05 s⁻¹ | < 1e-05 s⁻¹ | –
16 | C10G U31C A33C G51U C71U | < 1e-05 s⁻¹ | < 1e-05 s⁻¹ | – | –
17 | G13U G35C A64U | < 1e-05 s⁻¹ | < 1e-05 s⁻¹ | < 1e-05 s⁻¹ | –
18 | A15U U55G A64G | 0.000233 ± 5.2e-05 s⁻¹ | – | – | –
19 | A6G A33G G60C | < 1e-05 s⁻¹ | < 1e-05 s⁻¹ | – | –
20 | C11U C34U G66C | < 1e-05 s⁻¹ | – | < 1e-05 s⁻¹ | –
21 | C8U G9C G62A U65G | < 1e-05 s⁻¹ | – | < 1e-05 s⁻¹ | –
22 | C11A A33U G66A | < 1e-05 s⁻¹ | < 1e-05 s⁻¹ | < 1e-05 s⁻¹ | –
23 | C10G U31C A48U C61A C70G | < 1e-05 s⁻¹ | < 1e-05 s⁻¹ | – | –
24 | C8U G32U C50G | 0.000945 ± 0.00017 s⁻¹ | 0.000695 ± 0.00016 s⁻¹ | 0.000269 ± 8.5e-05 s⁻¹ | –
25 | G35C G40C A52C | < 1e-05 s⁻¹ | < 1e-05 s⁻¹ | < 1e-05 s⁻¹ | –
